The values below come from PMC11886768 (2025).

Experiment [1] addresses AD-COP1 (UniProt P43254). As to the kind of experiment: yeast three-hybrid (Y3H) competition assay (BD-HY5, AD-COP1). To be noted: read off a plot.
For experiment [2], the target named is E-COP1 (UniProt P43254). As to the kind of experiment: mammalian three-hybrid (M3H) assay, GFP co-expressed as control third protein. To be noted: CHO-K1 cells, 24 h, parent: est. 150, read off a plot.
Chain of E-COP1 (P43254 whole entry): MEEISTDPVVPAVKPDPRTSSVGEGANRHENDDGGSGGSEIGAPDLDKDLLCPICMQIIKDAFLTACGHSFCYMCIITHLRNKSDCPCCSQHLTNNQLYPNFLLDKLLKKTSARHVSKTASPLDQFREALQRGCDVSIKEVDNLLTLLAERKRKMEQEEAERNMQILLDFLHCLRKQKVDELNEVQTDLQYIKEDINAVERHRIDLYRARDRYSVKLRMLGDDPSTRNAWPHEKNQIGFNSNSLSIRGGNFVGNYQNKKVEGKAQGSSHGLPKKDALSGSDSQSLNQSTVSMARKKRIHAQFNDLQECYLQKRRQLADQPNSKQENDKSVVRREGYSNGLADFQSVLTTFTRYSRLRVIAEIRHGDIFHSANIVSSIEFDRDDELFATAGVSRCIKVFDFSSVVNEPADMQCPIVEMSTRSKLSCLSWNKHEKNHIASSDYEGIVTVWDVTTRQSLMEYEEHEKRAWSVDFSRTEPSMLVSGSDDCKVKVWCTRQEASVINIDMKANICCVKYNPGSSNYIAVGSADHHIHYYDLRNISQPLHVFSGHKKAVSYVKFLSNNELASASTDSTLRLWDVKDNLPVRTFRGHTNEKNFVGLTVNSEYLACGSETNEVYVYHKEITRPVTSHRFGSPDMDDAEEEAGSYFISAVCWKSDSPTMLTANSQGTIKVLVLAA

Chain of AD-COP1 (P43254 whole entry): as above

Turning to “CCT1 (yeast three-hybrid 'bridge protein') V548A; P549A”, the other: COP1-HY5 interaction signal (β-galactosidase activity) with the CCT1 variant as bridge protein in experiment [1] (1 day in darkness, followed by exposure to 50 μmol m−2 s−1 blue light for 1 day, no-bridge control est. 5.7, higher signal = less displacement of HY5 by the …, parent: est. 1.7) was 6.9 Miller units; in experiment [1] (darkness for 2 days, no-bridge control est. 8.5, higher signal = less displacement of HY5 by the CCT1 variant, parent: est. 3.1), 7.8 Miller units.

For the substance “HY5 fused to the herpes simplex virus-derived transactivation domain (VP16) (from UniProt O24646) HY5-VPAA (VP motif to AA; positions not printed)”, the figures for the response (Au (SEAP/sNLuc)) in experiment [2] (blue light (10 μmol m−2 s−1)) and in experiment [2] (darkness) were 7 and 5, respectively.
